Measured values taken from US20180072807A1 (UNIVERSITAT STUTTGART, published 2018).

Columns and labels:
human serum albumin = target: T1, human serum albumin (human, UniProt P02768 25-609); assay: size exclusion chromatography after incubation with albumin
T1 construct: also called HSA

mouse serum albumin = target: T2, mouse serum albumin (mouse, UniProt P07724 25-608); assay: as above
T2 construct: also called MSA

[1] = target: EGF receptor (EGFR, erbB1) (human, UniProt P00533 25-1210); assay: cell-based or functional assay
[2] = target: T3, proapoptotic TRAIL receptor DR4 (TRAIL R1) (UniProt O00220 24-468, limits assumed); assay: flow cytometry on EGFR low/negative HepG2 cells; detection with anti-TRAIL mAb
T3 construct: whole, on cells; Endogenous receptor on cell lines

Row | binding result (human serum albumin) | binding result (mouse serum albumin) | apoptosis-inducing activity on EGFR-positive Huh-7 cells compared to scTRAIL (SEQ ID NO: 104) [1] [fold] | binding result [2] | Binder
1 | binds | binds | – | – | dimeric EGFR-specific TRAIL fusion protein of SEQ ID NO: 126 with an albumin binding domain (ABD) at the C-terminus (other) LEASDYKDDDDKGAEVQLVESGGGLVQPGGSLRLSCAASGFSLTNYGVHWVRQAPGKGLEWLGVIWSGGNTDYNTPFTSRFTISRDNSKNTLYLQMNSLRAEDTAVYYCARALTYYDYEFAYWGQGTTVTVSSGGGGSDIQLTQSPSFLSASVGDRVTITCRASQSIGTNIHWYQQKPGKAPKLLIKYASESISGVPSRFSGSGSGTEFTLTISSLQPEDFATYYCQQNNNWPTTFGAGTKLEIKRAAAGNGTSNGTSEFTRGTSEETISTVQEKQQNISPLVRERGPQRVAAHITGTRGRSNTLSSPNSKNEKALGRKINSWESSRSGHSFLSNLHLRNGELVIHEKGFYYIYSQTYFRFQEEIKENTKNDKQMVQYIYKYTSYPDPILLMKSARNSCWSKDAEYGLYSIYQGGIFELKENDRIFVSVTNEHLIDMDHEASFFGAFLVGGGGSGGGSTSEETISTVQEKQQNISPLVRERGPQRVAAHITGTRGRSNTLSSPNSKNEKALGRKINSWESSRSGHSFLSNLHLRNGELVIHEKGFYYIYSQTYFRFQEEIKENTKNDKQMVQYIYKYTSYPDPILLMKSARNSCWSKDAEYGLYSIYQGGIFELKENDRIFVSVTNEHLIDMDHEASFFGAFLVGGGGSGGGSTSEETISTVQEKQQNISPLVRERGPQRVAAHITGTRGRSNTLSSPNSKNEKALGRKINSWESSRSGHSFLSNLHLRNGELVIHEKGFYYIYSQTYFRFQEEIKENTKNDKQMVQYIYKYTSYPDPILLMKSARNSCWSKDAEYGLYSIYQGGIFELKENDRIFVSVTNEHLIDMDHEASFFGAFLVGGGSGGQHDEAVDANSLAEAKVLANRELDKYGVSDYYKNLINNAKTVEGVKALIDEILAALP
2 | binds | binds | – | – | dimeric EGFR-specific TRAIL fusion protein of SEQ ID NO: 125 with an albumin binding domain (ABD) between component B and components A (other) LEASDYKDDDDKGAEVQLVESGGGLVQPGGSLRLSCAASGFSLTNYGVHWVRQAPGKGLEWLGVIWSGGNTDYNTPFTSRFTISRDNSKNTLYLQMNSLRAEDTAVYYCARALTYYDYEFAYWGQGTTVTVSSGGGGSDIQLTQSPSFLSASVGDRVTITCRASQSIGTNIHWYQQKPGKAPKLLIKYASESISGVPSRFSGSGSGTEFTLTISSLQPEDFATYYCQQNNNWPTTFGAGTKLEIKRGGSQHDEAVDANSLAEAKVLANRELDKYGVSDYYKNLINNAKTVEGVKALIDEILAALPAAAGNGTSNGTSEFTRGTSEETISTVQEKQQNISPLVRERGPQRVAAHITGTRGRSNTLSSPNSKNEKALGRKINSWESSRSGHSFLSNLHLRNGELVIHEKGFYYIYSQTYFRFQEEIKENTKNDKQMVQYIYKYTSYPDPILLMKSARNSCWSKDAEYGLYSIYQGGIFELKENDRIFVSVTNEHLIDMDHEASFFGAFLVGGGGSGGGSTSEETISTVQEKQQNISPLVRERGPQRVAAHITGTRGRSNTLSSPNSKNEKALGRKINSWESSRSGHSFLSNLHLRNGELVIHEKGFYYIYSQTYFRFQEEIKENTKNDKQMVQYIYKYTSYPDPILLMKSARNSCWSKDAEYGLYSIYQGGIFELKENDRIFVSVTNEHLIDMDHEASFFGAFLVGGGGSGGGSTSEETISTVQEKQQNISPLVRERGPQRVAAHITGTRGRSNTLSSPNSKNEKALGRKINSWESSRSGHSFLSNLHLRNGELVIHEKGFYYIYSQTYFRFQEEIKENTKNDKQMVQYIYKYTSYPDPILLMKSARNSCWSKDAEYGLYSIYQGGIFELKENDRIFVSVTNEHLIDMDHEASFFGAFLVG

The remaining lines, values behind:

Row | Binder | binding result (human serum albumin) | binding result (mouse serum albumin) | apoptosis-inducing activity on EGFR-positive Huh-7 cells compared to scTRAIL (SEQ ID NO: 104) [1] [fold] | binding result [2]
3 | EGFR-specific TRAIL fusion protein of SEQ ID NO: 96 (FLAG tag, huC225 VH, (GGGGS)3 linker L, VL, linker X, scTRAIL) (other, also called VH-VL-scTRAIL) LEASDYKDDDDKGAEVQLVESGGGLVQPGGSLRLSCAASGFSLTNYGVHWVRQAPGKGLEWLGVIWSGGNTDYNTPFTSRFTISRDNSKNTLYLQMNSLRAEDTAVYYCARALTYYDYEFAYWGQGTTVTVSSGGGGSGGGGSGGGGSDIQLTQSPSFLSASVGDRVTITCRASQSIGTNIHWYQQKPGKAPKLLIKYASESISGVPSRFSGSGSGTEFTLTISSLQPEDFATYYCQQNNNWPTTFGAGTKLEIKRAAAEFTRGTSEETISTVQEKQQNISPLVRERGPQRVAAHITGTRGRSNTLSSPNSKNEKALGRKINSWESSRSGHSFLSNLHLRNGELVIHEKGFYYIYSQTYFRFQEEIKENTKNDKQMVQYIYKYTSYPDPILLMKSARNSCWSKDAEYGLYSIYQGGIFELKENDRIFVSVTNEHLIDMDHEASFFGAFLVGGGGSGGGSTSEETISTVQEKQQNISPLVRERGPQRVAAHITGTRGRSNTLSSPNSKNEKALGRKINSWESSRSGHSFLSNLHLRNGELVIHEKGFYYIYSQTYFRFQEEIKENTKNDKQMVQYIYKYTSYPDPILLMKSARNSCWSKDAEYGLYSIYQGGIFELKENDRIFVSVTNEHLIDMDHEASFFGAFLVGGGGSGGGSTSEETISTVQEKQQNISPLVRERGPQRVAAHITGTRGRSNTLSSPNSKNEKALGRKINSWESSRSGHSFLSNLHLRNGELVIHEKGFYYIYSQTYFRFQEEIKENTKNDKQMVQYIYKYTSYPDPILLMKSARNSCWSKDAEYGLYSIYQGGIFELKENDRIFVSVTNEHLIDMDHEASFFGAFLVG | – | – | 10 | binds
4 | EGFR-specific TRAIL fusion protein according to SEQ ID NO: 102 (FLAG tag, huC225 VH, GGGGS linker L, VL, linker X, scTRAIL) (other, Made in HEK293 cells; The FLAG tag was kept for purification; also called divalent TRAIL fusion protein; dimeric TRAIL fusion protein) LEASDYKDDDDKGAEVQLVESGGGLVQPGGSLRLSCAASGFSLTNYGVHWVRQAPGKGLEWLGVIWSGGNTDYNTPFTSRFTISRDNSKNTLYLQMNSLRAEDTAVYYCARALTYYDYEFAYWGQGTTVTVSSGGGGSDIQLTQSPSFLSASVGDRVTITCRASQSIGTNIHWYQQKPGKAPKLLIKYASESISGVPSRFSGSGSGTEFTLTISSLQPEDFATYYCQQNNNWPTTFGAGTKLEIKRAAAEFTRGTSEETISTVQEKQQNISPLVRERGPQRVAAHITGTRGRSNTLSSPNSKNEKALGRKINSWESSRSGHSFLSNLHLRNGELVIHEKGFYYIYSQTYFRFQEEIKENTKNDKQMVQYIYKYTSYPDPILLMKSARNSCWSKDAEYGLYSIYQGGIFELKENDRIFVSVTNEHLIDMDHEASFFGAFLVGGGGSGGGSTSEETISTVQEKQQNISPLVRERGPQRVAAHITGTRGRSNTLSSPNSKNEKALGRKINSWESSRSGHSFLSNLHLRNGELVIHEKGFYYIYSQTYFRFQEEIKENTKNDKQMVQYIYKYTSYPDPILLMKSARNSCWSKDAEYGLYSIYQGGIFELKENDRIFVSVTNEHLIDMDHEASFFGAFLVGGGGSGGGSTSEETISTVQEKQQNISPLVRERGPQRVAAHITGTRGRSNTLSSPNSKNEKALGRKINSWESSRSGHSFLSNLHLRNGELVIHEKGFYYIYSQTYFRFQEEIKENTKNDKQMVQYIYKYTSYPDPILLMKSARNSCWSKDAEYGLYSIYQGGIFELKENDRIFVSVTNEHLIDMDHEASFFGAFLVG | – | – | – | binds
